The source of these data is patent publication US20050271676A1, “Inducing cellular immune responses to human immunodeficiency virus-1 using peptide and nucleic acid compositions” (Epimmune Inc., priority 1993, published 2005).

No end group written: not given here.

For one experiment, the target named is T1, HLA-A*0301 (Homo sapiens, UniProt P04439).
T1 construct: endogenous in cells; host or cells: GM3107
As to the kind of experiment: purified HLA class I binding assay, A*0301. The conditions noted are these: for A0301 (HIV A03 Motif Peptides with Binding Information): HIV POL-derived A03 motif peptides, binding value for purified HLA-A*0301, unit not given.

For another experiment, the target named is HLA-A*1101 (Homo sapiens, UniProt P04439, A114D/D185E/E176A/F33Y/L180Q/S129P/T187R). As to the kind of experiment: purified HLA class I binding assay, A*1101.
A further experiment has as its target T2, HLA-B*0702 (Homo sapiens, UniProt P01889).
T2 construct: endogenous in cells; host or cells: GM3107
As to the kind of experiment: purified HLA class I binding assay, B*0702. The conditions noted are these: for B*0702 binding (HIV B07 Super Motif Peptides with Binding Information): purified HLA-B*0702, binding value without unit; for B*0702 (binding information): HIV B07 supermotif peptides, binding value for purified HLA-B*0702, unit not given.

The mark [1] stands for this setting: HIV A03 motif peptides, Table XVI, binding value unit not given.
The mark [2] stands for this setting: HIV A11 motif peptides, Table XVII, unit not given.
The mark [3] stands for this setting: Table IX, HIV A03 super motif peptides, binding value, unit not given.
Where [4] appears, read: Table XVI, binding value for purified HLA-A*0301, unit not given.
[5] abbreviates: Table XVII, HIV A11 motif peptides, binding value for A*1101, printed without unit.
Where [6] appears, read: Table XVII, HIV A11 motif peptides, binding value A*1101, unit not given.
Where [7] appears, read: HIV A03 supermotif peptides, binding value, no unit given.
Where [8] appears, read: Table XVI, HIV POL-derived peptides, unit not given.
[9] abbreviates: HIV A03 supermotif peptides, Table IX, unit not given.
The mark [10] stands for this setting: binding value to purified HLA-A*1101 in Table XVII, unit not given.
The mark [11] stands for this setting: Table XVII, HIV A11 motif peptides, binding value for purified HLA-A*1101, unit not given.

On to KIWPSIIKGR, for which the “A0301 (binding information)” value in the experiment with HLA-A*0301 (setting [1]) was found to be 0.0770.

With KLVDFRELNK, the “A*1101 (binding information)” value on HLA-A*1101 (setting [2]) and on HLA-A*1101 (setting [3]) was 0.0900 throughout. Besides, the “A*0301 binding information” value on HLA-A*0301 (setting [3]) is recorded as 0.5100. Also, at HLA-A*0301 (setting [4]), the “A0301 (binding information, HIV A03 motif peptides)” value came to 0.5100.

In the case of KPCVKLTPLC, the “B*0702 binding (HIV B07 Super Motif Peptides with Binding Information)” value (shortened to “B*0702 binding”) with HLA-B*0702 was 0.0004.

Take KTKGIIRGSII: the “A*1101 (binding information)” value in the experiment with HLA-A*1101 (setting [5]) is 0.0001.

For KVKQWPLTEE, in the experiment with HLA-A*1101 (setting [6]), the “A*1101 (binding information)” value came out at 0.0330. The “A0301 (HIV A03 Motif Peptides with Binding Information)” value with HLA-A*0301 amounted to 0.0750.

In the case of KVYLAWVPAII, in the experiment with HLA-A*0301 (HIV A03 motif peptides, Table XVI, column A0301, unit not given), the A0301 binding is 8.6000.

With KVYLAWVPAIIK, the “A*1101 (binding information)” value with HLA-A*1101 (setting [7]) was found to be 2.3000. In addition, the “A*0301 binding information” value with HLA-A*0301 (setting [7]) came out at 8.6000.

LGIIQAQVDK: in the experiment with HLA-A*0301 (setting [8]), the “A0301 (binding information, HIV A03 motif peptides)” value is given as 0.0007.

On to LGIPIIPAGLK, for which, in the experiment with HLA-A*1101 (setting [6]), the “A*1101 (binding information)” value came to 0.0150.

On to LLQLIVWGIK, for which, in the experiment with HLA-A*1101 (setting [9]), the “A*1101 (binding information)” value is listed as 0.0110. Further, in the experiment with HLA-A*0301 (setting [9]), the “A*0301 binding information” value is given as 0.0055.

LPEKDSWTV: on HLA-B*0702, the “B*0702 (binding information)” value is reported as 0.0001.

As for LPGRWKPKM, at HLA-B*0702, the “B*0702 (binding information)” value amounted to 0.0038.

Regarding LPQGWKGSPA, at HLA-B*0702, the “B*0702 (binding information)” value is reported as 0.0120.

In the case of LTEDRWNKPQ, the “A*1101 (binding information)” value with HLA-A*1101 (setting [5]) is recorded as 0.0130. In the experiment with HLA-A*0301 (HIV A03 motif peptides, Table XVI, unit not given), the “A0301 (binding information)” value worked out at 0.0390.

For the sequence LYSAGIRK, the “A*1101 (HIV A11 Motif Peptides with Binding Information)” value in the experiment with HLA-A*1101 (binding to purified HLA-A*1101, unit not given) was 0.0054.

Turning to MGYELIIPDK, the “A0301 (binding information, HIV A03 motif peptides)” value with HLA-A*0301 (setting [4]) was determined as 0.0640.

MTKILIEPFR: the “A*1101 (binding information)” value with HLA-A*1101 (setting [6]) came to 0.0160.

On to MVIIQAISPR, for which, in the experiment with HLA-A*1101 (HIV A11 motif peptides (GAG), Table XVII, unit not given), the “A*1101 binding” value was 0.0670. In the experiment with HLA-A*0301 (setting [1]), the “A0301 (binding information)” value was found to be 0.1800.

Take NPDIVIYQYM: on HLA-B*0702, the “B*0702 (binding information)” value is listed as 0.0005.

With NPQSQGVVES, in the experiment with HLA-B*0702, the “B*0702 (binding information)” value is on record as 0.0001.

NTPVPAIK: the “A*1101 (HIV A11 Motif Peptides with Binding Information)” value with HLA-A*1101 (setting [10]) was determined as 0.0003.

With PCIMDGPKVK, the “A*1101 (binding information)” value with HLA-A*1101 (setting [6]) is on record as 0.0001.

As to QIYQEPPKNLK, the “A*1101 (binding information)” value with HLA-A*1101 (setting [7]) came to 0.2900. The “A*0301 binding information” value with HLA-A*0301 (setting [7]) was 0.2800.

On to QIYQIEPFKNLK, for which the “A0301 (binding information, HIV A03 motif peptides)” value with HLA-A*0301 (setting [8]) was 0.2800.

With QLDCTIILEGK, in the experiment with HLA-A*1101 (setting [6]), the “A*1101 (binding information)” value was 0.0003. Besides, the “A0301 (binding information, HIV A03 motif peptides)” value with HLA-A*0301 (setting [4]) was determined as 0.0010.

Take QPDKSESEIV: in the experiment with HLA-B*0702, the “B*0702 (binding information)” value is listed as 0.0002.

Regarding QVRDQAEIILK, in the experiment with HLA-A*0301, the “A0301 (HIV A03 Motif Peptides with Binding Information)” value is reported as 0.0089.

Turning to RIVELLGRR [1273.04], the results for the IC50 at HLA-A*1101 and on HLA-A*0301 were 600 nM and 200 nM, respectively.

With SDLEIGQIIR, the “A*1101 (binding information)” value with HLA-A*1101 (setting [6]) is given as 0.0001.

SPRTLNAWYK: the “B*0702 binding” value with HLA-B*0702 amounted to 0.0076.

Turning to SPTRKELQVW, in the experiment with HLA-B*0702, the “B*0702 (binding information)” value is given as 0.0025.

With TACQGVGGPG, in the experiment with HLA-A*1101 (setting [2]), the “A*1101 (binding information)” value is reported as 0.0001. Besides, in the experiment with HLA-A*0301 (setting [1]), the “A0301 (binding information)” value is listed as 0.0001.

Take TAVQMAVFIII: in the experiment with HLA-A*1101 (setting [6]), the “A*1101 (binding information)” value worked out at 0.0110. In addition, in the experiment with HLA-A*0301 (setting [4]), the “A0301 (binding information, HIV A03 motif peptides)” value worked out at 0.0004.

Regarding TPGIRYQYNV, on HLA-B*0702, the “B*0702 (binding information)” value was found to be 0.0004.

On to TPPLVKLWYQ, for which, in the experiment with HLA-B*0702, the “B*0702 (binding information)” value was determined as 0.0001.

As for TTPDKKIIQK, the “A0301 (HIV A03 Motif Peptides with Binding Information)” value in the experiment with HLA-A*0301 is listed as 0.0002.

For the sequence TYQCTIIGIK, the “A*1101 (binding information)” value with HLA-A*1101 (setting [11]) was determined as 0.0460.

Turning to VASCDKCQLK, the “A*1101 (binding information)” value with HLA-A*1101 (setting [3]) and in the experiment with HLA-A*1101 (setting [6]) was 0.0004 throughout. Also, in the experiment with HLA-A*0301, the “A0301 (HIV A03 Motif Peptides with Binding Information)” value is 0.0004. Also, the “A*0301 binding information” value in the experiment with HLA-A*0301 (setting [3]) was determined as 0.0004.

Regarding VAVIIVASGY, in the experiment with HLA-A*1101 (setting [6]), the “A*1101 (binding information)” value amounted to 0.0001. In the experiment with HLA-A*0301 (setting [4]), the “A0301 (binding information, HIV A03 motif peptides)” value was determined as 0.0004.

For the sequence VPIDPNPQEV, in the experiment with HLA-B*0702, the “B*0702 binding” value is reported as 0.0008.

With VPLDKDFRKY, the “B*0702 (binding information)” value on HLA-B*0702 is listed as 0.0002.

As to VPRRKAKII, the “B*0702 (binding information)” value at HLA-B*0702 is on record as 0.4800.

With VPVWKEATTT, the “B*0702 binding” value at HLA-B*0702 is reported as 0.0022.

As for VTVYYGVPVW, the “A*1101 (binding information)” value with HLA-A*1101 (setting [11]) worked out at 4.1000. Also, the “A0301 (binding information, HIV A03 motif peptides)” value in the experiment with HLA-A*0301 (purified HLA-A*0301 binding value as printed in Table XVI, unit not given) stood at 0.8600.

Take WTVQVIPLPEK: the “A0301 (binding information)” value with HLA-A*0301 (HIV A03 motif peptides, binding value to HLA-A*0301 as printed, no unit given) was 0.0011.

Regarding WTYQIYQEPF, the “A*1101 (HIV A11 Motif Peptides with Binding Information)” value with HLA-A*1101 (setting [10]) was found to be 0.0540. Besides, in the experiment with HLA-A*0301 (setting [8]), the “A0301 (binding information, HIV A03 motif peptides)” value came to 0.9200.

For the sequence YVDRIFYKTLR, in the experiment with HLA-A*1101 (setting [9]), the “A*1101 (binding information)” value was 0.0006. In addition, in the experiment with HLA-A*0301 (setting [9]), the “A*0301 binding information” value was found to be 0.0003.
